Measured values as given in publication PMC8497620, “Structure and inhibition of Cryptococcus neoformans sterylglucosidase to develop antifungal agents” (Nature Communications, 2021).

Target: C. neoformans Sgl1 (Cryptococcus neoformans var. grubii, UniProt J9W473)
Test: H/D exchange mass spectrometry mapping of disordered regions
Details: H/D exchange MS of C. neoformans Sgl1; per peptide (amino acids Start-End, Sequence); Fig S2a
Procedure: HDX-MS reactions were performed in a similar manner as is outlined in previous publications. HDX reactions were conducted in a final reaction volume of 50 µL with a final Sgl1 concentration of 0.6 µM (30 pmol). Exchange was carried out in triplicate for a single time point (3 s at 4 °C). Hydrogen deuterium exchange was initiated by the addition of 48 µL of D2O buffer (100 mM NaCl (20 mM pH 6.0 Bis-Tris), 90.5% D2O (V/V) to 1 µL of protein and 1 µL of H2O. Exchange was terminated by the addition of ice-cold acidic quench buffer, resulting in a final concentration of 0.6 M guanidine-HCl and 0.9% FA post quench. Samples were immediately frozen in liquid nitrogen and stored at −80 °C. Fully deuterated samples were generated by first denaturing the protein in 2 M guanidine for 5 min at 20 °C. Following denaturing, 48 µL of D2O buffer was added to the denatured protein and allowed to incubate for 5 min at 20 °C before quenching. Samples were flash frozen and stored at −80 °C until injection onto the ultra-performance liquid chromatography (UPLC) system for proteolytic cleavage, peptide separation, and injection onto a QTOF for mass analysis.
Protein sample was rapidly thawed and injected onto a UPLC system kept in a cold box at 2 °C. The protein was run over two immobilized pepsin columns (Applied Biosystems; Porosyme 2-3131-00) and the peptides were collected onto a VanGuard Precolumn trap (Waters). The trap was eluted in line with an ACQUITY 1.7 μm particle, 100 × 1 mm^2 C18 UPLC column (Waters), using a gradient of 5–36% B (Buffer A 0.1% formic acid, Buffer B 100% acetonitrile) over 16 min. MS experiments were performed on an Impact QTOF (Bruker) and peptide identification was done by running tandem MS (MS/MS) experiments run in data-dependent acquisition mode. The resulting MS/MS dataset was analyzed using PEAKS7 (PEAKS) and a false discovery rate was set at 1% using a database of purified proteins and known contaminants. HDExaminer Software (Sierra Analytics) was used to automatically calculate the level of deuterium incorporation into each peptide. All peptides were manually inspected for correct charge state and presence of overlapping peptides. Deuteration levels were calculated using the centroid of the experimental isotope clusters, with correction for back exchange generated using the fully deuterated sample. The mass spectrometry proteomics data have been deposited to the ProteomeXchange Consortium via the PRIDE partner repository[31] with the dataset identifier PXD024981.

Sequence of C. neoformans Sgl1 (J9W473 entry or part of it): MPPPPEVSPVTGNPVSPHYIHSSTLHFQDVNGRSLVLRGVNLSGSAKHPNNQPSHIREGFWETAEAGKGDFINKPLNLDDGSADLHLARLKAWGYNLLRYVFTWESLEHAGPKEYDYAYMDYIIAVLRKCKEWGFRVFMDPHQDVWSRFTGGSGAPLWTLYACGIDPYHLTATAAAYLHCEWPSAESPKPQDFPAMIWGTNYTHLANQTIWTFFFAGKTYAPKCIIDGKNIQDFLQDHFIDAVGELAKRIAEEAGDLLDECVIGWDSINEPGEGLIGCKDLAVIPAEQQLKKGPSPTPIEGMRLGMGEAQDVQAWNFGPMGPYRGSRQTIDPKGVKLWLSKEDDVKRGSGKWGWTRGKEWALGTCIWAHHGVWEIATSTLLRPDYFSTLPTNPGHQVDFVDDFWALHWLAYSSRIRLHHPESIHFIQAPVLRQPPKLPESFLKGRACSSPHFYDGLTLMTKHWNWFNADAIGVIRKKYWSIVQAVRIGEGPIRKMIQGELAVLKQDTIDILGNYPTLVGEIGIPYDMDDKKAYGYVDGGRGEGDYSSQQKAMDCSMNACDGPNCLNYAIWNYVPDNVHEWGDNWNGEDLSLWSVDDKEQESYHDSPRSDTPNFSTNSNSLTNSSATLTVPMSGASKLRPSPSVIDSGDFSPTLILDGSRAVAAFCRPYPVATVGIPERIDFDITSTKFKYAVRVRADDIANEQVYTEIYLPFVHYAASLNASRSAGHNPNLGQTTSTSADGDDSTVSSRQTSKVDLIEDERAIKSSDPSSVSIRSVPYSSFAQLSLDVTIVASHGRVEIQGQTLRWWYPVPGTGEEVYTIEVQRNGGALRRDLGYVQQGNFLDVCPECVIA

## AASLNASRSAGHNPNLGQTTSTSADGDD
  % Deuterium incorporation, Average: 99.7%

## AASLNASRSAGHNPNLGQTTSTSADGDDSTVSSRQTSKVDL
  % Deuterium incorporation, Average: 100.9%

## AIWNYVPDNVHEWGDN
  % Deuterium incorporation, Average: 23.9%

## AKRIAEE
  % Deuterium incorporation, Average: 1.8%

## AKRIAEEAGDL
  % Deuterium incorporation, Average: 9.2%

## AKRIAEEAGDLLDE
  % Deuterium incorporation, Average: 12.0%

## ANQTIWTF
  % Deuterium incorporation, Average: -1.6%

## ARLKAWGYNLL
  % Deuterium incorporation, Average: 2.5%

## ASKLRPSPSV
  % Deuterium incorporation, Average: 76.0%

## ASKLRPSPSVIDSGDFSPTL
  % Deuterium incorporation, Average: 47.3%

## ASKLRPSPSVIDSGDFSPTLIL
  % Deuterium incorporation, Average: 40.9%

## ATLTVPMSGASKLRPSPSVIDSGDFSPTL
  % Deuterium incorporation, Average: 63.6%

## AVIPAEQQL
  % Deuterium incorporation, Average: 59.2%

## AVIPAEQQLKKGPSPTPIEG
  % Deuterium incorporation, Average: 30.1%

## AVIPAEQQLKKGPSPTPIEGM
  % Deuterium incorporation, Average: 29.8%

## AVLKQDTID
  % Deuterium incorporation, Average: 23.0%

## AVLKQDTIDILGNYPTL
  % Deuterium incorporation, Average: 14.1%

## AVRIGEGPIRKMIQGEL
  % Deuterium incorporation, Average: 20.2%

## AVRVRADDIANE
  % Deuterium incorporation, Average: 16.0%

## AYSSRIRLHHPESIHFI
  % Deuterium incorporation, Average: 3.1%

## CIWAHHGVWE
  % Deuterium incorporation, Average: 1.8%

## CKDLAVIPAEQQLKKGPSPTPIEG
  % Deuterium incorporation, Average: 25.2%

## CVIGWDSINEPGEG
  % Deuterium incorporation, Average: 3.6%

## CVIGWDSINEPGEGLIGCKDL
  % Deuterium incorporation, Average: 4.2%

## DAIGVIRKKYWSIVQA
  % Deuterium incorporation, Average: 36.2%

## DDGSADLHL
  % Deuterium incorporation, Average: 35.8%

## DDKKAYGYVDGGRGEGDYSSQQKAMD
  % Deuterium incorporation, Average: 28.0%

## DERAIKSSDPSS
  % Deuterium incorporation, Average: 103.7%

## DITSTKF
  % Deuterium incorporation, Average: 7.2%

## DITSTKFKYAVRVRA
  % Deuterium incorporation, Average: 3.2%

## DITSTKFKYAVRVRADD
  % Deuterium incorporation, Average: 4.2%

## DITSTKFKYAVRVRADDIANE
  % Deuterium incorporation, Average: 9.0%

## DTIDILGNYPTL
  % Deuterium incorporation, Average: 14.2%

## DVQAWNFGPMGPYRGSRQTIDPKGVKL
  % Deuterium incorporation, Average: 26.1%

## DVTIVASHGRVEIQGQT
  % Deuterium incorporation, Average: 25.2%

## DVTIVASHGRVEIQGQTL
  % Deuterium incorporation, Average: 21.1%

## DVTIVASHGRVEIQGQTLRWWYPVPGTGE
  % Deuterium incorporation, Average: 20.6%

## DVTIVASHGRVEIQGQTLRWWYPVPGTGEEV
  % Deuterium incorporation, Average: 19.0%

## DVTIVASHGRVEIQGQTLRWWYPVPGTGEEVY
  % Deuterium incorporation, Average: 16.6%

## EIATSTL
  % Deuterium incorporation, Average: 59.2%

## EIYLPFVHY
  % Deuterium incorporation, Average: 0.7%

## ERAIKSSDPSS
  % Deuterium incorporation, Average: 103.4%

## FCRPYPVA
  % Deuterium incorporation, Average: 21.1%

## FCRPYPVAT
  % Deuterium incorporation, Average: 4.6%

## FCRPYPVATVGIPERIDF
  % Deuterium incorporation, Average: 5.0%

## FLKGRACSSPHF
  % Deuterium incorporation, Average: 26.5%

## FSTLPTNPGHQVDF
  % Deuterium incorporation, Average: 50.7%

## GQTTSTSADGDDSTVSSRQTSKVDL
  % Deuterium incorporation, Average: 102.4%

## HCEWPSAESPKPQDF
  % Deuterium incorporation, Average: 58.4%

## HCEWPSAESPKPQDFPAM
  % Deuterium incorporation, Average: 59.9%

## HDSPRSDTPNF
  % Deuterium incorporation, Average: 91.2%

## IATSTLLRPDYFSTLPTNPGHQVDF
  % Deuterium incorporation, Average: 31.3%

## IDAVGEL
  % Deuterium incorporation, Average: 5.7%

## IDILGNYPTL
  % Deuterium incorporation, Average: 20.4%

## IDSGDFSPTL
  % Deuterium incorporation, Average: 36.2%

## IDSGDFSPTLIL
  % Deuterium incorporation, Average: 26.0%

## IEDERAIKSSDPSS
  % Deuterium incorporation, Average: 101.2%

## IEDERAIKSSDPSSV
  % Deuterium incorporation, Average: 101.6%

## IEDERAIKSSDPSSVS
  % Deuterium incorporation, Average: 106.2%

## IEDERAIKSSDPSSVSIRSVPYSSF
  % Deuterium incorporation, Average: 100.4%

## IEVQRNGGAL
  % Deuterium incorporation, Average: 28.7%

## IEVQRNGGALRRDLG
  % Deuterium incorporation, Average: 58.5%

## IGCKDLAVIPAEQQLKKGPSPTPIEG
  % Deuterium incorporation, Average: 24.8%

## IGWDSINEPGEGL
  % Deuterium incorporation, Average: 4.5%

## IGWDSINEPGEGLIGCKDL
  % Deuterium incorporation, Average: 4.5%

## IIDGKNIQD
  % Deuterium incorporation, Average: 14.1%

## IIDGKNIQDFLQDHF
  % Deuterium incorporation, Average: 7.4%

## IKSSDPSS
  % Deuterium incorporation, Average: 106.2%

## IKSSDPSSVSIRSVPYSSF
  % Deuterium incorporation, Average: 106.5%

## ILDGSRAVAA
  % Deuterium incorporation, Average: 26.4%

## ILDGSRAVAAF
  % Deuterium incorporation, Average: 24.1%

## ILGNYPTL
  % Deuterium incorporation, Average: 27.3%

## INKPLNL
  % Deuterium incorporation, Average: 46.8%

## INKPLNLDDGSADL
  % Deuterium incorporation, Average: 26.9%

## INKPLNLDDGSADLHL
  % Deuterium incorporation, Average: 21.9%

## IQAPVLRQPPKLPES
  % Deuterium incorporation, Average: 35.7%

## IQAPVLRQPPKLPESF
  % Deuterium incorporation, Average: 36.0%

## IQAPVLRQPPKLPESFL
  % Deuterium incorporation, Average: 31.8%

## IRKKYWSIVQAV
  % Deuterium incorporation, Average: 45.4%

## IYLPFVHY
  % Deuterium incorporation, Average: 2.9%

## IYLPFVHYAASL
  % Deuterium incorporation, Average: 21.4%

## KDLAVIPAEQQLKKGPSPTPIEG
  % Deuterium incorporation, Average: 24.0%

## KGRACSSPHFYDGLTL
  % Deuterium incorporation, Average: 28.7%

## KKAYGYVDGGRGEGDYSSQQKAMD
  % Deuterium incorporation, Average: 29.0%

## KKGPSPTPIEG
  % Deuterium incorporation, Average: 6.7%

## KQDTIDILGNYPTL
  % Deuterium incorporation, Average: 22.4%

## KYAVRVRADDIANE
  % Deuterium incorporation, Average: 12.4%

## LAVIPAEQQLKKGPSPTPIEG
  % Deuterium incorporation, Average: 28.2%

## LAVIPAEQQLKKGPSPTPIEGM
  % Deuterium incorporation, Average: 28.2%

## LAYSSRIRLHHPESIHF
  % Deuterium incorporation, Average: 4.9%

## LDVCPEC
  % Deuterium incorporation, Average: 80.8%

## LKKGPSPTPIEG
  % Deuterium incorporation, Average: 11.2%

## LRKCKEWGF
  % Deuterium incorporation, Average: -8.6%

## LRPDYFSTLPTNPGHQVDF
  % Deuterium incorporation, Average: 37.3%

## LRWWYPVPGTGE
  % Deuterium incorporation, Average: 31.2%

## LRWWYPVPGTGEEV
  % Deuterium incorporation, Average: 23.5%

## LRWWYPVPGTGEEVY
  % Deuterium incorporation, Average: 19.1%

## LSGSAKHPNNQPSHIREGF
  % Deuterium incorporation, Average: 54.3%

## LTVPMSGASKLRPSPSV
  % Deuterium incorporation, Average: 86.0%

## LTVPMSGASKLRPSPSVIDSGD
  % Deuterium incorporation, Average: 65.2%

## LTVPMSGASKLRPSPSVIDSGDFSPTL
  % Deuterium incorporation, Average: 59.4%

## LVLRGVN
  % Deuterium incorporation, Average: 5.8%

## LVLRGVNL
  % Deuterium incorporation, Average: 7.5%

## LVLRGVNLSGSAKHPNNQPSH
  % Deuterium incorporation, Average: 28.6%

## LVLRGVNLSGSAKHPNNQPSHIREGF
  % Deuterium incorporation, Average: 33.7%

## MRLGMGEAQ
  % Deuterium incorporation, Average: 9.3%

## MRLGMGEAQDVQA
  % Deuterium incorporation, Average: 6.8%

## MRLGMGEAQDVQAWNFGPMGPYRGSRQTIDPKGVKL
  % Deuterium incorporation, Average: 19.3%

## MTKHWNWFNA
  % Deuterium incorporation, Average: 29.9%

## NACDGPNCLN
  % Deuterium incorporation, Average: 19.4%

## NACDGPNCLNY
  % Deuterium incorporation, Average: 17.8%

## NADAIGVIRKKYWSIVQ
  % Deuterium incorporation, Average: 33.7%

## NASRSAGHNPNLGQTTSTSADGDD
  % Deuterium incorporation, Average: 102.3%

## NASRSAGHNPNLGQTTSTSADGDDST
  % Deuterium incorporation, Average: 100.5%

## NASRSAGHNPNLGQTTSTSADGDDSTVSSRQTSKVDL
  % Deuterium incorporation, Average: 102.1%

## NASRSAGHNPNLGQTTSTSADGDDSTVSSRQTSKVDLIE
  % Deuterium incorporation, Average: 100.2%

## NYAIWNYVPDNVHE
  % Deuterium incorporation, Average: 17.1%

## NYVPDNVHE
  % Deuterium incorporation, Average: 30.1%

## NYVPDNVHEWGDN
  % Deuterium incorporation, Average: 41.1%

## NYVPDNVHEWGDNW
  % Deuterium incorporation, Average: 32.4%

## PVLRQPPKLPES
  % Deuterium incorporation, Average: 47.4%

## PVLRQPPKLPESF
  % Deuterium incorporation, Average: 50.6%

## PVLRQPPKLPESFL
  % Deuterium incorporation, Average: 40.7%

## PVTGNPVSPHYIHSSTL
  % Deuterium incorporation, Average: 36.8%

## PVTGNPVSPHYIHSSTLHF
  % Deuterium incorporation, Average: 30.4%

## QDVNGRS
  % Deuterium incorporation, Average: 17.0%

## QLKKGPSPTPIEG
  % Deuterium incorporation, Average: 10.2%

## QQLKKGPSPTPIEG
  % Deuterium incorporation, Average: 10.8%

## RADDIANE
  % Deuterium incorporation, Average: 33.8%

## RAIKSSDPSS
  % Deuterium incorporation, Average: 103.0%

## RAIKSSDPSSV
  % Deuterium incorporation, Average: 101.5%

## RAIKSSDPSSVS
  % Deuterium incorporation, Average: 104.6%
